{"source": "paper PMC5424160", "about": "“Menin enhances c-Myc-mediated transcription to promote cancer progression” (Nature Communications, 2017)", "biological_target": "T1, GST-CycT1 (UniProt O60563 1-726)", "T1 construct": "Cyclin T1, cDNA cloned into pGEX-4T-1; also called GST fused CycT1 protein; source: Escherichia coli (DE3), purified", "T1 sequence (O60563 whole entry, the tested form may be a part)": "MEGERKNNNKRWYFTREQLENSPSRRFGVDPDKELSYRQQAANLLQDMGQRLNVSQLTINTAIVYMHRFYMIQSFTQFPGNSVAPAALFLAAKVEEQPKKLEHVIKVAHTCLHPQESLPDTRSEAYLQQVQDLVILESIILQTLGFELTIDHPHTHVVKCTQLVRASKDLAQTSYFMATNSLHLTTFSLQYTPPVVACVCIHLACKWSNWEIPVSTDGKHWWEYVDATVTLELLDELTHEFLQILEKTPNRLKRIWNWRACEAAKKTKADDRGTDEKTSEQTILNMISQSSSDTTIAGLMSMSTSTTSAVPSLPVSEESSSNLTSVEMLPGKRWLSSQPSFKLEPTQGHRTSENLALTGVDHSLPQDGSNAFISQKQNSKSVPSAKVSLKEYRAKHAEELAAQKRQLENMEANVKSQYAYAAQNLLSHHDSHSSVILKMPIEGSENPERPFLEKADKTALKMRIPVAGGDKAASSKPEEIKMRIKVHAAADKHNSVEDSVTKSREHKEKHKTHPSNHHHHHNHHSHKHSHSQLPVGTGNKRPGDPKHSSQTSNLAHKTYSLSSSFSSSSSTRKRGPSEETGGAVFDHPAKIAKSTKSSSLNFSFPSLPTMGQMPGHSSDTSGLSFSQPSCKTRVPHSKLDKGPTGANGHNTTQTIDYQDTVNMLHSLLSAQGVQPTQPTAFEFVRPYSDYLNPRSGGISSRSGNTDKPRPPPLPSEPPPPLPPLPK", "assay": "pull-down; GST pull-down: purified GST fused protein as bait and purified His-tag protein; pull-down buffer 150 mM NaCl, 50 mM Tris pH 7.5, 0.1% NP-40, 5 mM DTT; western blot", "conditions": "both partners purified", "data": [{"binder": "His-Menin (natural protein, UniProt O00255 1-610, looked up, Menin, MEN1 cDNA cloned into pET-22b (+); also called His-tagged Menin protein; recombinant His-Menin protein; source: Escherichia coli (DE3), purified) MGLKAAQKTLFPLRSIDDVVRLFAAELGREEPDLVLLSLVLGFVEHFLAVNRVIPTNVPELTFQPSPAPDPPGGLTYFPVADLSIIAALYARFTAQIRGAVDLSLYPREGGVSSRELVKKVSDVIWNSLSRSYFKDRAHIQSLFSFITGTKLDSSGVAFAVVGACQALGLRDVHLALSEDHAWVVFGPNGEQTAEVTWHGKGNEDRRGQTVNAGVAERSWLYLKGSYMRCDRKMEVAFMVCAINPSIDLHTDSLELLQLQQKLLWLLYDLGHLERYPMALGNLADLEELEPTPGRPDPLTLYHKGIASAKTYYRDEHIYPYMYLAGYHCRNRNVREALQAWADTATVIQDYNYCREDEEIYKEFFEVANDVIPNLLKEAASLLEAGEERPGEQSQGTQSQGSALQDPECFAHLLRFYDGICKWEEGSPTPVLHVGWATFLVQSLGRFEGQVRQKVRIVSREAEAAEAEEPWGEEAREGRRRGPRRESKPEEPPPPKKPALDKGLGTGQGAVSGPPRKPPGTVAGTARGPEGGSTAQVPAPTASPPPEGPVLTFQSEKMKGMKELLVATKINSSAIKLQLTAQSQVQMKKQKVSTPSDYTLSFLKRQRKGL", "values": [{"measurement": "binding result", "result": "binds"}]}]}
